Experimental data as given in the supplement of paper PMC5998384.

What was measured:
HeLa Kyoto [1] = test: solubility change mitosis vs G1/S (difference of NP-40 vs SDS log2 ratios) (log2 ratio difference); higher = more soluble in mitosis
HeLa Kyoto [2] = test: solubility in G1/S (NP-40 vs SDS abundance) (log2 ratio); higher = more soluble; conditions: cell cycle stage: G1/S
HeLa Kyoto [3] = test: thermal stability score vs G1/S (z-score of summed log2 fold changes over temperatures); higher = more thermally stable than in G1/S
[4] = cell cycle stage: early G1 (4.5 h after nocodazole release)
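Wherever solubility change mitosis vs G1/S (difference of NP-40 vs SDS log2 ratios) is given: synchronized HeLa Kyoto cells (double thymidine block for G1/S, nocodazole release for mitosis), protein amounts in NP-40 versus SDS lysates quantified by mass spectrometry, three biological replicates.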
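Wherever solubility in G1/S (NP-40 vs SDS abundance) is given: HeLa Kyoto cells arrested at G1/S by double thymidine block, proteins quantified by TMT10plex mass spectrometry in mild NP-40 versus SDS extracts, three biological replicates.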
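Wherever thermal stability score vs G1/S (z-score of summed log2 fold changes over temperatures) is given: synchronized HeLa Kyoto cells, proteins quantified by TMT10plex mass spectrometry, three biological replicates, mitosis taken 0.5 h after nocodazole release, G1/S directly after double thymidine block.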

Sequence of NPTN (chain, as listed by the source): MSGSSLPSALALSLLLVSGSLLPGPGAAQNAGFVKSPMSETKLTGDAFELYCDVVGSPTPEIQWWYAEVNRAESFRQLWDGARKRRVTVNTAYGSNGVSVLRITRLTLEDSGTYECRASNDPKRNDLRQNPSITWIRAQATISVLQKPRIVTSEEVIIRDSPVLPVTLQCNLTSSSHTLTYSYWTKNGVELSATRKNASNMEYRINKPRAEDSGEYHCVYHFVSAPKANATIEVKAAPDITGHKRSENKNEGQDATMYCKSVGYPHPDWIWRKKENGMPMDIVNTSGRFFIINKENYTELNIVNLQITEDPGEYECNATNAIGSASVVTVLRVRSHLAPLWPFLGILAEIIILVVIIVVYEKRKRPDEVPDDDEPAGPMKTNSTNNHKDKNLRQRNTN

Row | Substance | solubility change mitosis (log2) (HeLa Kyoto [1]) | solubility in G1/S (log2) (HeLa Kyoto [2]) | thermal stability score (HeLa Kyoto [3]; [4]) | thermal stability score (HeLa Kyoto [3]; cell cycle stage: mitosis)
1 | MSQGILSPPAGLLSDDDVVVSPMFESTAADLGSVVRKNLLSDCSVVSTSLEDKQQVPSEDSMEKVKVYLRVRPLLPSELERQEDQGCVRIENVETLVLQAPKDSFALKSNERGIGQATHRFTFSQIFGPEVGQASFFNLTVKEMVKDVLKGQNWLIYTYGVTNSGKTHTIQGTIKDGGILPRSLALIFNSLQGQLHPTPDLKPLLSNEVIWLDSKQIRQEEMKKLSLLNGGLQEEELSTSLKRSVYIESRIGTSTSFDSGIAGLSSISQCTSSSQLDETSHRWAQPDTAPLPVPANIRFSIWISFFEIYNELLYDLLEPPSQQRKRQTLRLCEDQNGNPYVKDLNWIHVQDAEEAWKLLKVGRKNQSFASTHLNQNSSRSHSIFSIRILHLQGEGDIVPKISELSLCDLAGSERCKDQKSGERLKEAGNINTSLHTLGRCIAALRQNQQNRSKQNLVPFRDSKLTRVFQGFFTGRGRSCMIVNVNPCASTYDETLHVAKFSAIASQLVHAPPMQLGFPSLHSFIKEHSLQVSPSLEKGAKADTGLDDDIENEADISMYGKEELLQVVEAMKTLLLKERQEKLQLEMHLRDEICNEMVEQMQQREQWCSEHLDTQKELLEEMYEEKLNILKESLTSFYQEEIQERDEKIEELEALLQEARQQSVAHQQSGSELALRRSQRLAASASTQQLQEVKAKLQQCKAELNSTTEELHKYQKMLEPPPSAKPFTIDVDKKLEEGQKNIRLLRTELQKLGESLQSAERACCHSTGAGKLRQALTTCDDILIKQDQTLAELQNNMVLVKLDLRKKAACIAEQYHTVLKLQGQVSAKKRLGTNQENQQPNQQPPGKKPFLRNLLPRTPTCQSSTDCSPYARILRSRRSPLLKSGPFGKKY [KIF20A] | -0.0791 | -0.582 | 0.449 | 3.61
2 | MSQGSPGDWAPLDPTPGPPASPNPFVHELHLSRLQRVKFCLLGALLAPIRVLLAFIVLFLLWPFAWLQVAGLSEEQLQEPITGWRKTVCHNGVLGLSRLLFFLLGFLRIRVRGQRASRLQAPVLVAAPHSTFFDPIVLLPCDLPKVVSRAENLSVPVIGALLRFNQAILVSRHDPASRRRVVEEVRRRATSGGKWPQVLFFPEGTCSNKKALLKFKPGAFIAGVPVQPVLIRYPNSLDTTSWAWRGPGVLKVLWLTASQPCSIVDVEFLPVYHPSPEESRDPTLYANNVQRVMAQALGIPATECEFVGSLPVIVVGRLKVALEPQLWELGKVLRKAGLSAGYVDAGAEPGRSRMISQEEFARQLQLSDPQTVAGAFGYFQQDTKGLVDFRDVALALAALDGGRSLEELTRLAFELFAEEQAEGPNRLLYKDGFSTILHLLLGSPHPAATALHAELCQAGSSQGLSLCQFQNFSLHDPLYGKLFSTYLRPPHTSRGTSQTPNASSPGNPTALANGTVQAPKQKGD [LPCAT4] | -0.122 | -0.0461 | 0.358 | 0.234
3 | MSSACDAGDHYPLHLLVWKNDYRQLEKELQGQNVEAVDPRGRTLLHLAVSLGHLESARVLLRHKADVTKENRQGWTVLHEAVSTGDPEMVYTVLQHRDYHNTSMALEGVPELLQKILEAPDFYVQMKWEFTSWVPLVSRICPNDVCRIWKSGAKLRVDITLLGFENMSWIRGRRSFIFKGEDNWAELMEVNHDDKVVTTERFDLSQEMERLTLDLMKPKSREVERRLTSPVINTSLDTKNIAFERTKSGFWGWRTDKAEVVNGYEAKVYTVNNVNVITKIRTEHLTEEEKKRYKADRNPLESLLGTVEHQFGAQGDLTTECATANNPTAITPDEYFNEEFDLKDRDIGRPKELTIRTQKFKAMLWMCEEFPLSLVEQVIPIIDLMARTSAHFARLRDFIKLEFPPGFPVKIEIPLFHVLNARITFGNVNGCSTAEESVSQNVEGTQADSASHITNFEVDQSVFEIPESYYVQDNGRNVHLQDEDYEIMQFAIQQSLLESSRSQELSGPASNGGISQTNTYDAQYERAIQESLLTSTEGLCPSALSETSRFDNDLQLAMELSAKELEEWELRLQEEEAELQQVLQLSLTDK [ANKRD13A] | -0.0203 | -0.139 | 0.86 | 0.416
4 | MSSLGASFVQIKFDDLQFFENCGGGSFGSVYRAKWISQDKEVAVKKLLKIEKEAEILSVLSHRNIIQFYGVILEPPNYGIVTEYASLGSLYDYINSNRSEEMDMDHIMTWATDVAKGMHYLHMEAPVKVIHRDLKSRNVVIAADGVLKICDFGASRFHNHTTHMSLVGTFPWMAPEVIQSLPVSETCDTYSYGVVLWEMLTREVPFKGLEGLQVAWLVVEKNERLTIPSSCPRSFAELLHQCWEADAKKRPSFKQIISILESMSNDTSLPDKCNSFLHNKAEWRCEIEATLERLKKLERDLSFKEQELKERERRLKMWEQKLTEQSNTPLLPSFEIGAWTEDDVYCWVQQLVRKGDSSAEMSVYASLFKENNITGKRLLLLEEEDLKDMGIVSKGHIIHFKSAIEKLTHDYINLFHFPPLIKDSGGEPEENEEKIVNLELVFGFHLKPGTGPQDCKWKMYMEMDGDEIAITYIKDVTFNTNLPDAEILKMTKPPFVMEKWIVGIAKSQTVECTVTYESDVRTPKSTKHVHSIQWSRTKPQDEVKAVQLAIQTLFTNSDGNPGSRSDSSADCQWLDTLRMRQIASNTSLQRSQSNPILGSPFFSHFDGQDSYAAAVRRPQVPIKYQQITPVNQSRSSSPTQYGLTKNFSSLHLNSRDSGFSSGNTDTSSERGRYSDRSRNKYGRGSISLNSSPRGRYSGKSQHSTPSRGRYPGKFYRVSQSALNPHQSPDFKRSPRDLHQPNTIPGMPLHPETDSRASEEDSKVSEGGWTKVEYRKKPHRPSPAKTNKERARGDHRGWRNF [ZAK] | 0.649 | -1.14 | -0.231 | -2.89
5 | MTGLYELVWRVLHALLCLHRTLTSWLRVRFGTWNWIWRRCCRAASAAVLAPLGFTLRKPPAVGRNRRHHRHPRGGSCLAAAHHRMRWRADGRSLEKLPVHMGLVITEVEQEPSFSDIASLVVWCMAVGISYISVYDHQGIFKRNNSRLMDEILKQQQELLGLDCSKYSPEFANSNDKDDQVLNCHLAVKVLSPEDGKADIVRAAQDFCQLVAQKQKRPTDLDVDTLASLLSSNGCPDPDLVLKFGPVDSTLGFLPWHIRLTEIVSLPSHLNISYEDFFSALRQYAACEQRLGK [NUS1] | 0.162 | 0.00319 | -0.859 | 0.124
6 | MTQPVPRLSVPAALALGSAALGAAFATGLFLGRRCPPWRGRREQCLLPPEDSRLWQYLLSRSMREHPALRSLRLLTLEQPQGDSMMTCEQAQLLANLARLIQAKKALDLGTFTGYSALALALALPADGRVVTCEVDAQPPELGRPLWRQAEAEHKIDLRLKPALETLDELLAAGEAGTFDVAVVDADKENCSAYYERCLQLLRPGGILAVLRVLWRGKVLQPPKGDVAAECVRNLNERIRRDVRVYISLLPLGDGLTLAFKI [COMTD1] | 0.00811 | 0.16 | -0.487 | 0.44
7 | MWDQRLVRLALLQHLRAFYGIKVKGVRGQCDRRRHETAATEIGGKIFGVPFNALPHSAVPEYGHIPSFLVDACTSLEDHIHTEGLFRKSGSVIRLKALKNKVDHGEGCLSSAPPCDIAGLLKQFFRELPEPILPADLHEALLKAQQLGTEEKNKATLLLSCLLADHTVHVLRYFFNFLRNVSLRSSENKMDSSNLAVIFAPNLLQTSEGHEKMSSNTEKKLRLQAAVVQTLIDYASDIGRVPDFILEKIPAMLGIDGLCATPSLEGFEEGEYETPGEYKRKRRQSVGDFVSGALNKFKPNRTPSITPQEERIAQLSESPVILTPNAKRTLPVDSSHGFSSKKRKSIKHNFNFELLPSNLFNSSSTPVSVHIDTSSEGSSQSSLSPVLIGGNHLITAGVPRRSKRIAGKKVCRVESGKAGCFSPKISHKEKVRRSLRLKFNLGKNGREVNGCSGVNRYESVGWRLANQQSLKNRIESVKTGLLFSPDVDEKLPKKGSEKISKSEETLLTPERLVGTNYRMSWTGPNNSSFQEVDANEASSMVENLEVENSLEPDIMVEKSPATSCELTPSNLNNKHNSNITSSPLSGDENNMTKETLVKVQKAFSESGSNLHALMNQRQSSVTNVGKVKLTEPSYLEDSPEENLFETNDLTIVESKEKYEHHTGKGEKCFSERDFSPLQTQTFNRETTIKCYSTQMKMEHEKDIHSNMPKDYLSKQEFSSDEEIKKQQSPKDKLNNKLKENENMMEGNLPKCAAHSKDEARSSFSQQSTCVVTNLSKPRPMRIAKQQSLETCEKTVSESSQMTEHRKVSDHIQWFNKLSLNEPNRIKVKSPLKFQRTPVRQSVRRINSLLEYSRQPTGHKLASLGDTASPLVKSVSCDGALSSCIESASKDSSVSCIKSGPKEQKSMSCEESNIGAISKSSMELPSKSFLKMRKHPDSVNASLRSTTVYKQKILSDGQVKVPLDDLTNHDIVKPVVNNNMGISSGINNRVLRRPSERGRAWYKGSPKHPIGKTQLLPTSKPVDL [ARHGAP11A] | -0.288 | -0.915 | -0.137 | -0.131
8 | NHS | -0.00515 | -0.153 | 0.656 | 0.325
9 | NPTN | 0.245 | 0.36 | -1.2 | -2.14
10 | PTEN | 0.174 | -0.27 | -0.257 | 0.0266
11 | SACS | -0.045 | -0.294 | -0.0387 | -0.338
12 | TMEM131 | -0.0264 | -0.0423 | -1.15 | -1.6
13 | UBR3 | -0.171 | -0.174 | -0.103 | -0.24
